Experimental data published in patent publication US20220242919A1 (LIMMATECH BIOLOGICS, published 2022).

Molecular target: T1, recombinant human VEGF-R1 (human, UniProt P17948 27-756, limits assumed)
T1 construct: Bought (Acro Biosystems), used as positive control analyte in SPR; also called rhVEGF-R1; VEGF receptor
Assay: SPR, Biacore T200, 25 C, VEGF165 immobilized, multi cycle kinetics
Experimental: Surface plasmon resonance spectroscopy. The kinetic parameters of the VEGF-binders were measured using a Biacore T200 instrument at 25° C. The bait ligand (recombinant human VEGF₁₆₅, Acro Biosystems) was covalently immobilized on a sensor chip Cl surface at three different densities. The prey analyte (different DARPins, or as a positive control, recombinant human VEGF-R1 (Acro Biosystems)) was analysed using multi cycle kinetics in 10 mM HEPES pH 7.4, 150 mM NaCl, 3 mM EDTA, 0.05% Tween 20 at a flow rate of 50 μl/min.
For determination of the kinetic parameters, the concentration of the probe was measured using a BCA assay (Pierce) and the molecular weight was determined via the SPR signal measured at saturating conditions (Rₘₐₓ). See Table 4 for the MW determined via SPR. Each probe was measured twice on sensor surfaces with three different densities of covalently immobilized recombinant human VEGF₁₆₅. The KD of rhVEGF-R1 is in the double-digit nanomolar range. The unmodified DARPin has a single-digit picomolar affinity to human VEGF₁₆₅, as reported by Stahl et al. (Angiogenesis 16, 101-111 (2013)).

T1 sequence (P17948 27-756 limits assumed): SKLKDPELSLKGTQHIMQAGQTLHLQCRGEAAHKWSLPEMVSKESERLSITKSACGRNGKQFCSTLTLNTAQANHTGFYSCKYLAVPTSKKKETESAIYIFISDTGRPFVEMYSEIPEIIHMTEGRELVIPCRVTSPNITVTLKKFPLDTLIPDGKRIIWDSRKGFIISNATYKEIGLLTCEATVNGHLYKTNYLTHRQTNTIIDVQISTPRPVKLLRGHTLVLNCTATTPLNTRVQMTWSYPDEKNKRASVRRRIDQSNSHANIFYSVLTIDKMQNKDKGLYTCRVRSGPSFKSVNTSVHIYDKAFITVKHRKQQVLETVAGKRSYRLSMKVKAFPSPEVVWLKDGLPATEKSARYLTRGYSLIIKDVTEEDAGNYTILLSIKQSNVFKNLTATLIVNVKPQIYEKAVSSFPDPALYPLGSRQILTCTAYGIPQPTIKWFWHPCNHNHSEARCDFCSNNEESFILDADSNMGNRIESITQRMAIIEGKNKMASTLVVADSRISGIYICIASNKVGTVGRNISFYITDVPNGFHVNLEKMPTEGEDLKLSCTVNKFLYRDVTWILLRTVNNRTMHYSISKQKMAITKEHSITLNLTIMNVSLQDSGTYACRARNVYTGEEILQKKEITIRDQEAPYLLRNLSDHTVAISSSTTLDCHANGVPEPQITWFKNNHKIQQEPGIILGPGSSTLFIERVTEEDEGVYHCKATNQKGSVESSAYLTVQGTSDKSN

B1: recombinant human VEGF165 (ligand, UniProt P15692-4 27-191, looked up)
chain: APMAEGGGQNHHEVVKFMDVYQRSYCHPIETLVDIFQEYPDEIEYIFKPSCVPLMRCGGCCNDEGLECVPTEESNITMQIMRIKPHQGQHIGEMSFLQHNKCECRPKKDRARQENPCGPCSERRKHLFVQDPQTCKCSCKNTDSRCKARQLELNERTCRCDKPRR
notes: Bought (Acro Biosystems); covalently immobilized on a Biacore sensor chip C1 surface at three densities; also called VEGF-A
In the case of B1, the Kd is reported as 0.069 nM, the koff is reported as 8.1e-05 s⁻¹ and the kon is reported as 1.1e+06 M⁻¹ s⁻¹.
